Common to all, as to test: ITC
Background: ITC needs no label: the signal is the heat of the interaction.

Test [1] addresses HSL3 ectodomain pre-incubated with CTNIP4^C58A.C68A(46–70)_(linear) (Arabidopsis, C58A (stands in the printed letters) | C68A (stands in the printed letters)).
Test [2] deals with HSL3 ectodomain pre-incubated with CTNIP4^C58A(46–63) (Arabidopsis, C58A (stands in the printed letters)).
Test [3] has as its target HSL3–CTNIP4 complex (HSL3 ectodomain pre-incubated with CTNIP4(46–70)_(Cys–Cys)) (Arabidopsis, disulfide bond linking Cys58 and Cys68).
In test [4] the target is HSL3 ectodomain pre-incubated with CTNIP4^N60F(46–70)_(Cys–Cys) (Arabidopsis, N60F (stands in the printed letters), disulfide bond linking Cys58 and Cys68).
Test [5] addresses HSL3 ectodomain pre-incubated with CTNIP4^N60A(46–70)_(Cys–Cys) (Arabidopsis, N60A (stands in the printed letters), disulfide bond linking Cys58 and Cys68).

B1: SERK1 ectodomain (residues 24–213) (domain or fragment)
chain: ASANLEGDALHTLRVTLVDPNNVLQSWDPTLVNPCTWFHVTCNNENSVIRVDLGNAELSGHLVPELGVLKNLQYLELYSNNITGPIPSNLGNLTNLVSLDLYLNSFSGPIPESLGKLSKLRFLRLNNNSLTGSIPMSLTNITTLQVLDLSNNRLSGSVPDNGSFSLFTPISFANNLDLCGPVTSHPCPGS
Regarding B1, the Kd in test [1] amounted to 2540 nM; in test [2] it was 8200 nM; in test [3] it was 458 nM.

B2: SERK3 (protein)
chain: NAEGDALSALKNSLADPNKVLQSWDATLVTPCTWFHVTCNSDNSVTRVDLGNANLSGQLVMQLGQLPNLQYLELYSNNITGTIPEQLGNLTELVSLDLYLNNLSGPIPSTLGRLKKLRFLRLNNNSLSGEIPRSLTAVLTLQVLDLSNNPLTGDIPVNGSFSLFTPISFANTKLTPLPASPPPPISPTPPSPAGS
As for B2, the dissociation constant (Kd) in test [4] was 15100 nM; in test [5], 2050 nM; in test [3], 269 nM.

For orientation: Kd means the free concentration of one partner at which half of the binding sites on the other are occupied at equilibrium, for simple one-to-one binding. A low value points to higher affinity.

These data come from paper PMC13585564 (2026).
